Test results published in publication PMC10078426 (2022).

Molecular target: human IgG from serum (human, UniProt P01857 = IgG part)
Test: SPR

B1: protein G only (natural protein)
chain: VDSPIEDTPIIRNGGELTNLLGNSETTLALRNEESATADLTAAAVADTVAAAAAENAGAAAWEAAAAADALAKAKADALKEFNKYGVSDYYKNLINNAKTVEGVKDLQAQVVESAKKARISEATDGLSDFLKSQTPAEDTVKSIELAEAKVLANRELDKYGVSDYHKNLINNAKTVEGVKDLQAQVVESAKKARISEATDGLSDFLKSQTPAEDTVKSIELAEAKVLANRELDKYGVSDYYKNLINNAKTVEGVKALIDEILAALPKTDTYKLILNGKTLKGETTTEAVDAATAEKVFKQYANDNGVDGEWTYDDATKTFTVTEKPEVIDASELTPAVTTYKLVINGKTLKGETTTEAVDAATAEKVFKQYANDNGVDGEWTYDDATKTFTVTEKPEVIDASELTPAVTTYKLVINGKTLKGETTTKAVDAETAEKAFKQYANDNGVDGVWTYDDATKTFTVTEMVTEVPGDAPTEPEKPEASIPLVPLTPATPIAKDDAKKDDTKKEDAKKPEAKKEDAKKAETLPTT
- Kd: 0.0356 µM
